Target: the molecule itself
Experiment: FRET or BRET

B1: InlB321 K280C mutant, fluorophore-labeled (T variant) (domain or fragment, Listeria monocytogenes, UniProt P0DQD2 36-321, looked up)
chain: ETITVPTPIKQIFSDDAFAETIKDNLKKKSVTDAVTQNELNSIDQIIANNSDIKSVQGIQYLPNVTKLFLNGNKLTDIKPLANLKNLGWLFLDENKVKDLSSLKDLKKLKSLSLEHNGISDINGLVHLPQLESLYLGNNKITDITVLSRLTKLDTLSLEDNQISDIVPLAGLTKLQNLYLSKNHISDLRALAGLKNLDVLELFSQEALNKPINHQSNLVVPNTVKNTDGSLVTPEIISDDGDYECPNVKWHLPEFTNEVSFIFYQPVTIGKAKARFHGRVTQPLKE
modifications: Cy3B (donor) or ATTO 647N (acceptor) attached by maleimide chemistry to the single cysteine at position 280
binding result: binds
